The values that follow come from US20210155676A1 (Gilead, published 2021).

Test [1] has as its target HIV-1 93HT593 Env (on virus) (HIV-1 isolate 93HT593). Put plainly: cell-based or functional assay.
For test [2], the target named is HIV-1 92US727 Env (on virus) (HIV-1 isolate 92US727). Put plainly: cell-based or functional assay.
Test [3] has as its target HIV-1 92US657 Env (on virus) (HIV-1 isolate 92US657). In words: cell-based or functional assay.
In test [4] the target is HIV-1 92US712 Env (on virus) (HIV-1 isolate 92US712). Put plainly: cell-based or functional assay.
Another test concerns the target HIV-1 BaL Env (on virus) (HIV-1 strain BaL). Put plainly: cell-based or functional assay.
The target in another test is T1, gp140 BaL (HIV-1 strain BaL).
T1 construct: domain: gp140
Put plainly: ELISA, gp140 coated. On the technique in general: ELISA stands for enzyme-linked immunosorbent assay.

For the next test, the target named is T2, gp140 SHIV SF162P3 (SHIV SF162P3).
T2 construct: domain: gp140; also called SHIV gp140
Put plainly: ELISA, gp140 coated.

The target of test [5] is T3, Human FcRn (human, UniProt P55899 24-297; P61769 21-119).
T3 construct: also called neonatal Fc receptor
T3 sequence (P55899 24-297 limits assumed, chain 1 of 2): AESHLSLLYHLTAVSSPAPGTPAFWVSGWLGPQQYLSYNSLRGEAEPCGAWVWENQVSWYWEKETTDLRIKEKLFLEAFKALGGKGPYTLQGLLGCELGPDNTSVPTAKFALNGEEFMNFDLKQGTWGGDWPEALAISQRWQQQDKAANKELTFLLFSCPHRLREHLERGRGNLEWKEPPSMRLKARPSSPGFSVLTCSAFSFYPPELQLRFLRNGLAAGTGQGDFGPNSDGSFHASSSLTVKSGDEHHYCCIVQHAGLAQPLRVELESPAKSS
T3 sequence (P61769 21-119 limits assumed, chain 2 of 2): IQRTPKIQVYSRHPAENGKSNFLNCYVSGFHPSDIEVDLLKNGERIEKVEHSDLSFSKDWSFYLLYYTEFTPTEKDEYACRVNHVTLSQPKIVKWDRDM
Put plainly: ELISA, ratio of EC50 at pH 7.0 to EC50 at pH 6.0.
Method: (§1) The binding of antibodies to FcRn of various species at different pHs was determined. A 96-well Maxisorp plate was coated with 100 ul of 5 μg/ml FcRn. The plate was incubated overnight at 4° C., and then blocked with 4% skim milk for 2 hr at room temperature after washing 3 times with 0.05% Tween 20 washing buffer. The plate was incubated with 3 fold serial dilution of primary antibody for 1 hr at room temperature. The plate was then washed 3 times and 100 of Fab-anti-human Fab-HRP or Goat anti-human IgG-HRP secondary antibody diluted in 4% skimmed milk was added. Plates were then incubated 50 min at room temperature, washed three times, and 100 μL fresh TMB substrate was added. Plates were developed for 3 minutes on bench with gentle shaking. Plate was quenched with 100 μL 1M HCl, shaken briefly, read at A450 on a spectramax m5 plate reader.

Test [6] addresses T3, Human FcRn. Put plainly: ELISA, FcRn coated on plate, pH 6.0.
Method: as §1
Test [7] concerns the target HIV-1 Env of subtype B isolate MGRM-B-112 (HIV-1). Put plainly: cell-based or functional assay.
In test [8] the target is HIV-1 Env of subtype B isolate MGRM-B-106 (HIV-1). Put plainly: cell-based or functional assay.
The target in test [9] is HIV-1 Env of subtype B isolate MGRM-B-132 (HIV-1). In words: cell-based or functional assay.
The target of test [10] is HIV-1 Env of subtype B isolate MGRM-B-111 (HIV-1). In words: cell-based or functional assay.
Test [11] addresses HIV-1 Env of subtype B isolate MGRM-B-118 (HIV-1). In words: cell-based or functional assay.
For test [12], the target named is HIV-1 Env of subtype B isolate MGRM-B-115 (HIV-1). In words: cell-based or functional assay.
Test [13] deals with HIV-1 Env of subtype B isolate MGRM-B-136 (HIV-1). In words: cell-based or functional assay.
The target of test [14] is HIV-1 Env of subtype B isolate MGRM-B-110 (HIV-1). In words: cell-based or functional assay.
For test [15], the target named is HIV-1 Env of subtype B isolate MGRM-B-105 (HIV-1). In words: cell-based or functional assay.
The target in test [16] is T3, Human FcRn. Put plainly: ELISA, FcRn coated on plate, pH 7.0.
Method: as §1
In test [17] the target is HIV-1 Env of subtype B virus 15-124906 (HIV-1). Put plainly: cell-based or functional assay.
In test [18] the target is HIV-1 Env of subtype B virus 15-124975 (HIV-1). In words: cell-based or functional assay.
For test [19], the target named is HIV-1 Env of subtype B virus 15-124963 (HIV-1). In words: cell-based or functional assay.
Test [20] addresses HIV-1 Env of subtype B virus 15-101608 (HIV-1). In words: cell-based or functional assay.
For test [21], the target named is HIV-1 Env of subtype B virus 15-124970 (HIV-1). In words: cell-based or functional assay.
The target in test [22] is HIV-1 Env of subtype B virus 15-124986 (HIV-1). In words: cell-based or functional assay.
In test [23] the target is HIV-1 Env of subtype B virus 15-124950 (HIV-1). In words: cell-based or functional assay.
For test [24], the target named is HIV-1 Env of subtype B virus 15-124987 (HIV-1). Put plainly: cell-based or functional assay.
The target in test [25] is HIV-1 Env of subtype B virus 15-102514 (HIV-1). Put plainly: cell-based or functional assay.
Test [26] has as its target HIV-1 Env of subtype B virus 15-101757 (HIV-1). Put plainly: cell-based or functional assay.
Test [27] concerns the target HIV-1 Env of subtype B virus 15-124918 (HIV-1). In words: cell-based or functional assay.
In test [28] the target is HIV-1 Env of subtype B virus 15-124914 (HIV-1). Put plainly: cell-based or functional assay.
Test [29] deals with HIV-1 Env of subtype B virus 15-124964 (HIV-1). In words: cell-based or functional assay.
For test [30], the target named is HIV-1 Env of subtype B virus 15-124962 (HIV-1). In words: cell-based or functional assay.
Test [31] deals with HIV-1 Env of subtype B virus 15-124904 (HIV-1). In words: cell-based or functional assay.
The target of test [32] is HIV-1 Env of subtype B virus 15-124934 (HIV-1). Put plainly: cell-based or functional assay.
In test [33] the target is human FcγRIIIA on primary NK effector cells (human, UniProt P08637 17-254). In words: cell-based or functional assay.
human FcγRIIIA on primary NK effector cells, sequence (P08637 17-254): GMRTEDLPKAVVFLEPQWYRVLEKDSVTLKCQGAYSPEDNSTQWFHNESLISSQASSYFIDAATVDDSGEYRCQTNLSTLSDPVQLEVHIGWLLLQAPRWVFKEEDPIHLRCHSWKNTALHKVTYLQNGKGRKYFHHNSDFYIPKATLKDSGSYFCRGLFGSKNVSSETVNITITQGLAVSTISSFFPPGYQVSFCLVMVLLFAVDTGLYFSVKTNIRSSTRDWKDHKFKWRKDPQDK
The target in test [34] is T3, Human FcRn. In words: ELISA, pH 7.0/6.0 ratio relative to PGT121.
Method: as §1

The EC50 is the concentration at which the effect is half-maximal.

Method for gp140 BaL: (§2) The in vitro binding characteristics of antibodies for both the antigen (HIV gp120) and Fc binding receptors (FcγRs, FcRn) were determined using an Enzyme-Linked Immunosorbant Assay (ELISA).
Method for gp140 SHIV SF162P3: as §2

B1: PGT121.56 hIgG1/hLambda (antibody)
heavy: QMQLQESGPGLVKPSETLSLTCSVSGASISDSYWSWIRRSPGKGLEWIGYVHKSGDTNYSPSLKSRVNLSLDTSKNQVSLSLVAATAADSGKYYCARTLHGRRIYGIVAFNEWFTYFYMDVWGNGTQVTVSSASTKGPSVFPLAPSSKSTSGGTAALGCLVKDYFPEPVTVSWNSGALTSGVHTFPAVLQSSGLYSLSSVVTVPSSSLGTQTYICNVNHKPSNTKVDKKVEPKSCDKTHTCPPCPAPELLAGPDVFLFPPKPKDTLMISRTPEVTCVVVDVSHEDPEVKFNWYVDGVEVHNAKTKPREEQYNSTYRVVSVLTVLHQDWLNGKEYKCKVSNKALPLPEEKTISKAKGQPREPQVYTLPPSREEMTKNQVSLTCLVKGFYPSDIAVEWESNGQPENNYKTTPPVLDSDGSFFLYSKLTVDKSRWQQGNVFSCSVLHEALHSHYTQKSLSLSPGK
light: not shown
In the case of B1, the “neutralization IC50, HIV-1 HT593, CEM.NKr.CCR5.Luc assay” value in test [1] came to 0.164 µg/mL. The “neutralization IC50, HIV-1 US727, CEM.NKr.CCR5.Luc assay” value in [2] stood at 0.011 µg/mL. Further, the “neutralization IC50, HIV-1 US657, CEM.NKr.CCR5.Luc assay” value in test [3] was found to be 0.142 µg/mL. Further, the “neutralization IC50, HIV-1 US712, CEM.NKr.CCR5.Luc assay” value in test [4] turned out to be 0.019 µg/mL. Besides, the “neutralization IC50, HIV-1 BaL, CEM.NKr.CCR5.Luc assay” value in the test with HIV-1 BaL Env (on virus) was 0.02 µg/mL. The 50% effective concentration (EC50) in the test with gp140 BaL was 0.59 nM; with gp140 SHIV SF162P3, 0.48 nM.

B2: PGT121.60 hIgG1/hLambda (antibody)
heavy: QMQLQESGPGLVKPSETLSLTCSVSGASISDSYWSWIRRSPGKGLEWIGYVHKSGDTNYNPSLKSRVHLSLDTSKNQVSLSLTGVTAADSGKYYCARTLHGRRIYGIVAFNEWFTYFYMDVWGTGTQVTVSSASTKGPSVFPLAPSSKSTSGGTAALGCLVKDYFPEPVTVSWNSGALTSGVHTFPAVLQSSGLYSLSSVVTVPSSSLGTQTYICNVNHKPSNTKVDKKVEPKSCDKTHTCPPCPAPELLAGPDVFLFPPKPKDTLMISRTPEVTCVVVDVSHEDPEVKFNWYVDGVEVHNAKTKPREEQYNSTYRVVSVLTVLHQDWLNGKEYKCKVSNKALPLPEEKTISKAKGQPREPQVYTLPPSREEMTKNQVSLTCLVKGFYPSDIAVEWESNGQPENNYKTTPPVLDSDGSFFLYSKLTVDKSRWQQGNVFSCSVLHEALHSHYTQKSLSLSPGK
light: not shown
For B2, the “Ratio pH 7.0/6.0” value with Human FcRn [5] came out at 355. The EC50 in the test with Human FcRn [6] came out at 0.22 nM; in the test with Human FcRn [16] it was 78 nM. The “PGT121 IC50/PGT121.60 IC50” value in [7] amounted to 2.5 fold; in test [8], 4.1 fold; in test [9] it was 1.2 fold; in test [10] it was 2.2 fold; in test [11], 0.7 fold; in [12] it was 1.7 fold. In addition, the “PGT121 IC50/PGT121.60 IC50” value worked out at 1.2 fold in test [13]; 3.3 fold in test [14]; 2.9 fold in test [15]; 5.3 fold in test [17]; 5.5 fold in test [18]; 8.2 fold in [19]. Also, the “PGT121 IC50/PGT121.60 IC50” value in test [20] is 3.6 fold; in test [21], 3.9 fold; in test [22] it was 3.2 fold; in test [23] it was 3 fold; in test [24], 3.1 fold; in test [25], 3.5 fold. For the same molecule, the “PGT121 IC50/PGT121.60 IC50” value in test [26] worked out at 4.7 fold; in test [27], 3 fold; in test [28], 3 fold; in test [29], 3.5 fold; in test [30], 3.4 fold; in test [31] it was 3.1 fold. Further, the “PGT121 IC50/PGT121.60 IC50” value in test [32] was found to be 12.1 fold. Also, the “neutralization IC50” value in test [7] turned out to be 0.0058 µg/mL; in [8] it was 0.001 µg/mL; in test [9], 0.0077 µg/mL; in [10], 0.955 µg/mL; in [11], 3.31 µg/mL; in [12], 0.141 µg/mL. Further, the “neutralization IC50” value in test [13] stood at 0.0071 µg/mL; in [14] it was 0.0113 µg/mL; in test [15] it was 0.0076 µg/mL; in [17], 0.0103 µg/mL; in test [18] it was 0.105 µg/mL; in [19], 2.05 µg/mL. Besides, the “neutralization IC50” value in [20] amounted to 1.84 µg/mL; in [21], 0.0285 µg/mL; in test [22], 0.0015 µg/mL; in test [23], 0.0995 µg/mL; in [24], 0.0163 µg/mL; in test [25], 0.0128 µg/mL. In addition, the “neutralization IC50” value is 0.0132 µg/mL in test [26]; 0.0018 µg/mL in test [27]; 0.002 µg/mL in test [28]; 0.0026 µg/mL in test [29]; 0.0277 µg/mL in test [30]; 0.0121 µg/mL in test [31]. Also, the “neutralization IC50” value in test [32] came out at 0.797 µg/mL. Also, the “ADCC AUC, NK donor A4813, primary CD4+ T cells infected with HT593” value in [33] turned out to be 185. In addition, in test [33], the “ADCC AUC, NK donor A4813, primary CD4+ T cells infected with US657” value was 220. The “ADCC EC50, NK donor A4813, primary CD4+ T cells infected with HT593” value in test [33] was 0.7 nM. Moreover, in test [33], the “ADCC EC50, NK donor A4813, primary CD4+ T cells infected with US657” value stood at 1.2 nM. Further, in test [33], the “ADCC Emax, NK donor A4813, primary CD4+ T cells infected with HT593” value worked out at 67%. In addition, in [33], the “ADCC Emax, NK donor A4813, primary CD4+ T cells infected with US657” value is 72%. Further, the “Fold vs PGT121” value with Human FcRn [34] came out at 11 fold.

B3: PGT121.61 hIgG1/hLambda (antibody)
heavy: QMQLQESGPGLVKPSETLSLTCSVSGASISDSYWSWIRRSPGKGLEWIGYVHKSGDTNYNPSLKSRVHLSLDTSKNQVSLSLTGVTAADSGKYYCARTLHGRRIYGIVAFNEWFTYFYMDVWGTGTQVTVSSASTKGPSVFPLAPSSKSTSGGTAALGCLVKDYFPEPVTVSWNSGALTSGVHTFPAVLQSSGLYSLSSVVTVPSSSLGTQTYICNVNHKPSNTKVDKKVEPKSCDKTHTCPPCPAPELLAGPDVFLFPPKPKDTLMISRTPEVTCVVVDVSHEDPEVKFNWYVDGVEVHNAKTKPREEQYNSTYRVVSVLTVLHQDWLNGKEYKCKVSNKALPLPEEKTISKAKGQPREPQVYTLPPSREEMTKNQVSLTCLVKGFYPSDIAVEWESNGQPENNYKTTPPVLDSDGSFFLYSKLTVDKSRWQQGNVFSCSVLHEALHSHYTQKSLSLSPGK
light: SDISVAPGETARISCGEKSLGSRAVQWYQHRAGQAPSLIIYNNQDRPSGIPERFSGSPDSRPGTTATLTITSVEAGDEADYYCHIWDSRVPTKWVFGGGTKLTVLGQPKAAPSVTLFPPSSEELQANKATLVCLISDFYPGAVTVAWKADSSPVKAGVETTTPSKQSNNKYAASSYLSLTPEQWKSHRSYSCQVTHEGSTVEKTVAPTECS
B3: the “neutralization IC50, HIV-1 HT593, CEM.NKr.CCR5.Luc assay” value in test [1] is 0.343 µg/mL. Further, in test [2], the “neutralization IC50, HIV-1 US727, CEM.NKr.CCR5.Luc assay” value worked out at 0.005 µg/mL. Further, the “neutralization IC50, HIV-1 US657, CEM.NKr.CCR5.Luc assay” value in test [3] came to 0.072 µg/mL. Besides, the “neutralization IC50, HIV-1 US712, CEM.NKr.CCR5.Luc assay” value in test [4] worked out at 0.008 µg/mL. Moreover, the “neutralization IC50, HIV-1 BaL, CEM.NKr.CCR5.Luc assay” value with HIV-1 BaL Env (on virus) worked out at 0.008 µg/mL.
